What all share (test): Kinase profiling (radiometric filter-binding)
Type in all cases: biochemical

One series concerns the target WNK1 (Homo sapiens, UniProt Q9H4A3). The settings on record: WNK1, 1 µM inhibitor; read-out: Residual activity, %. The gist of the method:
(§1)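 A 1 µM final dose of each inhibitor was profiled on human protein kinases; ATP was kept at or beneath the KM of every enzyme, and radiometric filter binding measured turnover, expressed as % of the inhibitor-free reaction.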

A further series has as its target PKB (Homo sapiens, UniProt P31749). The note with it: first of two PKB lines (Greek letter lost), 1 µM inhibitor, read-out: Residual activity, %. The gist of the method:
as §1

Another series concerns the target T1, BRSK1 (Homo sapiens, UniProt Q8TDC3).
T1 sequence (Q8TDC3 1-778): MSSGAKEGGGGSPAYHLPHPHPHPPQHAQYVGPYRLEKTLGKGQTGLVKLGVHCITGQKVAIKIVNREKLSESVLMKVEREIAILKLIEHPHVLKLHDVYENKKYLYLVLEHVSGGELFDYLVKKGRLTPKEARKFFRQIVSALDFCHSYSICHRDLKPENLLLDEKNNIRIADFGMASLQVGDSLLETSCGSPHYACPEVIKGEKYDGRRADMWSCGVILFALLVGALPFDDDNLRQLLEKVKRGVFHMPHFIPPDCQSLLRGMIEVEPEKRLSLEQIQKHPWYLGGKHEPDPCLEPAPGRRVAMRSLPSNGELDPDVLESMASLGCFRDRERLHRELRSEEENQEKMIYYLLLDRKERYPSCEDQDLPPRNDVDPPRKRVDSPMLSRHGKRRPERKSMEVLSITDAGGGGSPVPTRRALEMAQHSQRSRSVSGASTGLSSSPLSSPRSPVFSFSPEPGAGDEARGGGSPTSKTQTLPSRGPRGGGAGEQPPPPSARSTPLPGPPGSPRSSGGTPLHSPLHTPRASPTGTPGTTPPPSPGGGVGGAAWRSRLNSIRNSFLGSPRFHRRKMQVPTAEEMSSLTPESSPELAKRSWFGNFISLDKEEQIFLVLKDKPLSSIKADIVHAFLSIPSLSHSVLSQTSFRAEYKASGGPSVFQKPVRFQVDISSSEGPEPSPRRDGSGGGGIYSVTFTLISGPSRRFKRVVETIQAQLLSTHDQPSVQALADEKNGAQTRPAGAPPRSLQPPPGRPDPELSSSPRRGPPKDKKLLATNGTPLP
The note with it: BRSK1, 1 µM inhibitor; read-out: Residual activity, %. Put shortly:
as §1

The target of another series is T2, Aurora A (Homo sapiens, UniProt O14965).
T2 sequence (O14965 1-403): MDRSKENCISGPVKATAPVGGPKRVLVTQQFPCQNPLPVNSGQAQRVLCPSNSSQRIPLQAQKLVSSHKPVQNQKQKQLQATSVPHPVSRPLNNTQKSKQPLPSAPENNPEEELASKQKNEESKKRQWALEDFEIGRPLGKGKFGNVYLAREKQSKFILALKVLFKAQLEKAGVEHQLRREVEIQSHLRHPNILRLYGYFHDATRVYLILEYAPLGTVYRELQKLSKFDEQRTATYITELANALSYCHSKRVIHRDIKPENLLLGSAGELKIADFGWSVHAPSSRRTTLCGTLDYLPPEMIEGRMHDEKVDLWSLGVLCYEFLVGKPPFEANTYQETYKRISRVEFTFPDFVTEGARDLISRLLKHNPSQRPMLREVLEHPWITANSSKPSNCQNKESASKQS
The settings on record: 1 µM inhibitor, read-out: Residual activity, %. The gist of the method: as §1

The next series addresses T3, DYRK2 (Homo sapiens, UniProt Q92630).
T3 sequence (Q92630 1-601): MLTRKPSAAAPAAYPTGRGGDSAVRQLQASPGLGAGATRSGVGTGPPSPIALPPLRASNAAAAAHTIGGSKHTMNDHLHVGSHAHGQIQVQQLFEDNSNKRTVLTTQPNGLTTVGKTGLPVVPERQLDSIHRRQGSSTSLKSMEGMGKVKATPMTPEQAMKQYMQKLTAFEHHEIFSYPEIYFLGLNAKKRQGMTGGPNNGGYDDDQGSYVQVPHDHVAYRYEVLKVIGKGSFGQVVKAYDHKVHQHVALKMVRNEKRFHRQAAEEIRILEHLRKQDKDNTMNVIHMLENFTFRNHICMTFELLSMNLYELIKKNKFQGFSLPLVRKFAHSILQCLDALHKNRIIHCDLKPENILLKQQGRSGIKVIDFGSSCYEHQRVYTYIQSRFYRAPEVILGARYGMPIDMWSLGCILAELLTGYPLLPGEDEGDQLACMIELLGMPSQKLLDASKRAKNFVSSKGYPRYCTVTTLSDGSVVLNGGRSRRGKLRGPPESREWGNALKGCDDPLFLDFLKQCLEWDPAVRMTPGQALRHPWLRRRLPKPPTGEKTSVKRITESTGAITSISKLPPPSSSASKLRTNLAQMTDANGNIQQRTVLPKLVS
The note with it: DYRK2, 1 µM inhibitor; read-out: Residual activity, %. The gist of the method: as §1

The next series concerns the target STK33 (Homo sapiens, UniProt Q9BYT3). The note with it: STK33, 1 µM inhibitor; read-out: Residual activity, %. The gist of the method:
as §1

The next series addresses PDGFRA (Homo sapiens, UniProt P16234). The note with it: 1 µM inhibitor, read-out: Residual activity, %. Put shortly: as §1
A further series deals with MPSK1 (Homo sapiens, UniProt O75716). The note with it: MPSK1, 1 µM inhibitor; read-out: Residual activity, %. Put shortly: as §1
A further series concerns the target PRK2 (Homo sapiens, UniProt Q16513). The settings on record: PRK2, 1 µM inhibitor; read-out: Residual activity, %. The gist of the method:
as §1

The values below come from paper PMC8307404, “Crystal Structure-Guided Design of Bisubstrate Inhibitors and Photoluminescent Probes for Protein Kinases of the PIM Family” (Molecules, 2021).

Square brackets hold non-standard residues; d marks the D form. Peptide text beside a SMILES is read from it. * marks the point of attachment. X3 = O=C(CCCCCNCc1nc2c(sc3cc(Br)cnc32)c(=O)[nH]1)*

Chain of MPSK1 (O75716 whole entry): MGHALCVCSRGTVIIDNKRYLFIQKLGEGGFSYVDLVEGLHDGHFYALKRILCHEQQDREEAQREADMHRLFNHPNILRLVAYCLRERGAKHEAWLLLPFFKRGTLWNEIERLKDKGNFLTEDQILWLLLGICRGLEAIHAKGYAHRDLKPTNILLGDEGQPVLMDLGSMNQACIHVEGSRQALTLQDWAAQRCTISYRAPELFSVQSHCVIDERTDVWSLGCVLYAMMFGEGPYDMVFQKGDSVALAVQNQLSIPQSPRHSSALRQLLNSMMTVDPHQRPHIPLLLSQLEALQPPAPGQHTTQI
Chain of PDGFRA (P16234 24-1089): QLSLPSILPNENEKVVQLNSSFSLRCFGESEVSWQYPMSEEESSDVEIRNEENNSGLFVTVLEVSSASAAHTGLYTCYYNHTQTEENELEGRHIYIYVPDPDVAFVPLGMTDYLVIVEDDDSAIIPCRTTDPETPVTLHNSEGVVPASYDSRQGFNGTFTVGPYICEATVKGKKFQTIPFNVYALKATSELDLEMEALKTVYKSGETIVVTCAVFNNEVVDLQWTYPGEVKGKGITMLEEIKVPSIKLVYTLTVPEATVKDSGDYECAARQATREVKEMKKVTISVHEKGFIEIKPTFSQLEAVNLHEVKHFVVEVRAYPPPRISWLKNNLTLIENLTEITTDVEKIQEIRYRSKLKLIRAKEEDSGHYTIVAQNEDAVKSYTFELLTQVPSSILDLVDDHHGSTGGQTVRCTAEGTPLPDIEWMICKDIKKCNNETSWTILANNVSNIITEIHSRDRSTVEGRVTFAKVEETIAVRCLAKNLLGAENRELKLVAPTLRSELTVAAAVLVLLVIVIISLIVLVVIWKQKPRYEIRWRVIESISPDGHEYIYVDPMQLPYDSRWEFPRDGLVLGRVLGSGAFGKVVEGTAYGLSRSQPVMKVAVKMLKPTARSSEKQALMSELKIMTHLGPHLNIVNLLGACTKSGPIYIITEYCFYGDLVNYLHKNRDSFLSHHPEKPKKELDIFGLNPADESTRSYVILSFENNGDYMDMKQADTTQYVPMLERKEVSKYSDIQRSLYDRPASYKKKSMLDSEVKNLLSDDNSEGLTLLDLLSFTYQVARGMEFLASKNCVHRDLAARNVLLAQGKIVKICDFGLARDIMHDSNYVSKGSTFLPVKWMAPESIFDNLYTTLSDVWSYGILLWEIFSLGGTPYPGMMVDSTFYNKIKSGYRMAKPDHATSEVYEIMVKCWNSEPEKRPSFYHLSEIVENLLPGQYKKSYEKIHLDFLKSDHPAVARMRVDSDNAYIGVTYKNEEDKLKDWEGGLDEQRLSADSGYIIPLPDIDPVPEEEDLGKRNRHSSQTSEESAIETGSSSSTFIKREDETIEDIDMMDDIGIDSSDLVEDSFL
Chain of WNK1 (Q9H4A3 whole entry): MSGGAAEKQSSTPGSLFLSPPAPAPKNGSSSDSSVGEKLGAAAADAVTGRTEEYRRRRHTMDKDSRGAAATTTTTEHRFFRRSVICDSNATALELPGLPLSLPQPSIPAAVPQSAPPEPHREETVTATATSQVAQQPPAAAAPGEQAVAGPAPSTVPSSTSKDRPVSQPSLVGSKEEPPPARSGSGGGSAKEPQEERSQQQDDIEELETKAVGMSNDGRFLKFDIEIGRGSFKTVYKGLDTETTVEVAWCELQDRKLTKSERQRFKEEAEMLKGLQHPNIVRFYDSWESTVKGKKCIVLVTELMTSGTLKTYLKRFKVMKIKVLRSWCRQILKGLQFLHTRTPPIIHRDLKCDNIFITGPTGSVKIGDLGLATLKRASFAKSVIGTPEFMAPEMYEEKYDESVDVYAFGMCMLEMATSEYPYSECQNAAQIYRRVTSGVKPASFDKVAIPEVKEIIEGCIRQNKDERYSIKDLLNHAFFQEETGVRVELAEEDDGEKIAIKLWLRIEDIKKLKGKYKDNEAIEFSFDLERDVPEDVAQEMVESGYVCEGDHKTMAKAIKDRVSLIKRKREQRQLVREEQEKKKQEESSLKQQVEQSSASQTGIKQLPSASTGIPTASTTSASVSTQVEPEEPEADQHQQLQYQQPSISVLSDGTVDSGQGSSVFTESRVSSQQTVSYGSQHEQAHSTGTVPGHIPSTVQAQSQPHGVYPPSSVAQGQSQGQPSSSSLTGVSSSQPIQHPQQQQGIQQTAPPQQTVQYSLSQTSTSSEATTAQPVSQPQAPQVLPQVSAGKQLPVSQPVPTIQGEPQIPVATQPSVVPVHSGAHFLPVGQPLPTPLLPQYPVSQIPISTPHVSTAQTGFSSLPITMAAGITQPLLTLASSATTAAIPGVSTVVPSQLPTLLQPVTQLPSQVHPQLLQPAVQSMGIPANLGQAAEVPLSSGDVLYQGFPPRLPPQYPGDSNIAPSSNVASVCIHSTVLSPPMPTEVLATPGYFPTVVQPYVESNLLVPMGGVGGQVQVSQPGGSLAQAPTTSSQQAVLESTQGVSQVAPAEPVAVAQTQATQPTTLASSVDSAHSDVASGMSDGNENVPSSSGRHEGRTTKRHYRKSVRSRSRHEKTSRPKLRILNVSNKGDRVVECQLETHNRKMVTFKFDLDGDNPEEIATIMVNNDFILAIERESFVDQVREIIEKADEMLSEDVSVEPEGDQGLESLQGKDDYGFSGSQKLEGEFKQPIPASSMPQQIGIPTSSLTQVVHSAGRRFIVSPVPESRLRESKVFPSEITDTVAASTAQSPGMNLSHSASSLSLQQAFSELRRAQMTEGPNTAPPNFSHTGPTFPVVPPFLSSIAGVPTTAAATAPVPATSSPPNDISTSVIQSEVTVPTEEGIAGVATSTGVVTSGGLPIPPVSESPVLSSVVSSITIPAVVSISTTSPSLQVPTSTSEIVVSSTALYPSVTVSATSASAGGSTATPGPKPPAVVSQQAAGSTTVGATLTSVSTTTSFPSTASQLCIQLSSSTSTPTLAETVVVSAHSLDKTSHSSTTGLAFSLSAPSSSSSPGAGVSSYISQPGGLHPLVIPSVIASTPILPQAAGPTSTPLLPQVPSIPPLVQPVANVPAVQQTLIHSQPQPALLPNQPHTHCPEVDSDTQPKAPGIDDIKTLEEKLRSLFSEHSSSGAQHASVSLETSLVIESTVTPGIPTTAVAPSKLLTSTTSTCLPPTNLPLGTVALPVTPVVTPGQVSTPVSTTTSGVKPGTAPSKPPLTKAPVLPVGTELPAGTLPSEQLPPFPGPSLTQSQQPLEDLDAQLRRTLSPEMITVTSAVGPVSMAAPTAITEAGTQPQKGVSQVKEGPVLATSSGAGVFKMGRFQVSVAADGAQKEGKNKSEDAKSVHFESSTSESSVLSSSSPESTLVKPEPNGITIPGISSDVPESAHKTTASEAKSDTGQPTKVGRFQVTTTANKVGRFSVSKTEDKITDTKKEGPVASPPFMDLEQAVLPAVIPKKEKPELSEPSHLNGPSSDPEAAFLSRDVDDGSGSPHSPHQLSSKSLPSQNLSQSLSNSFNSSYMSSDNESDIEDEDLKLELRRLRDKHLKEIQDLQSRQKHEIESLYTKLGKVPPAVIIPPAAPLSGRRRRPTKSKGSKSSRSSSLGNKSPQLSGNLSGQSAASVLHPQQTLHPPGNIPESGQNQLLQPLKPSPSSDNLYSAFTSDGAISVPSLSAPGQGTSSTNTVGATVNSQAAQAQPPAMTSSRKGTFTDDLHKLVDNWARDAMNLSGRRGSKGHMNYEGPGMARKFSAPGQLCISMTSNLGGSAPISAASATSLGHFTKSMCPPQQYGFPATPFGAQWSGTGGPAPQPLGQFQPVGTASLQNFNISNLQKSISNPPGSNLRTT
Chain of PRK2 (Q16513 whole entry): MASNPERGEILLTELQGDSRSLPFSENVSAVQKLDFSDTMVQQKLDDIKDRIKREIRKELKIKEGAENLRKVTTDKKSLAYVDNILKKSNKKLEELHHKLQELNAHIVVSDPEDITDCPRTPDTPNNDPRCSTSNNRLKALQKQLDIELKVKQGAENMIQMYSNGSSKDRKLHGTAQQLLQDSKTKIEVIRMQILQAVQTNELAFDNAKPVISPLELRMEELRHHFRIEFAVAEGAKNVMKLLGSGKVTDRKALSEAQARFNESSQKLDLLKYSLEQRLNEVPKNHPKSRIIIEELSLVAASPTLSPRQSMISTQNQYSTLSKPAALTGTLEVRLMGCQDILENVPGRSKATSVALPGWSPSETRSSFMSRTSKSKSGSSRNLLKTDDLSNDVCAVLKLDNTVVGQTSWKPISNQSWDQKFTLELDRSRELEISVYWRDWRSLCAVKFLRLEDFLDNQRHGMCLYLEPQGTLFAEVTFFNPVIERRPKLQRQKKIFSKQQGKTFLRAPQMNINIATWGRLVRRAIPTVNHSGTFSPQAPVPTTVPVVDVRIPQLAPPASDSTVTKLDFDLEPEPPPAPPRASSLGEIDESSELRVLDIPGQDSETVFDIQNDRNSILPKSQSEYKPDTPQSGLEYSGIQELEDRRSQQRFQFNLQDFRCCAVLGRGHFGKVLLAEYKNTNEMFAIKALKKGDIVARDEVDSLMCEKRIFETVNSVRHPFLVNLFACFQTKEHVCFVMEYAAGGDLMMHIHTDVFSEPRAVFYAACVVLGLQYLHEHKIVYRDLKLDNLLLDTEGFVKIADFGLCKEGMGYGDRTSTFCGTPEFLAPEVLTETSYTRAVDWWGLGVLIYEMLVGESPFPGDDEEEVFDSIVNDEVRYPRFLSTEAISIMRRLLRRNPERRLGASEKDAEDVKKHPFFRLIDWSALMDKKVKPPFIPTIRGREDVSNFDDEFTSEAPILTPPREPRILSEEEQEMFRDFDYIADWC

On to `N=C(N)NCCC[C@@H](NC(=O)CCCCCNCc1nc2c(sc3cc(Br)cnc32)c(=O)[nH]1)C(=O)N[C@H](CCCNC(=N)N)C(=O)N[C@H](CCCNC(=N)N)C(=O)N[C@H](CCCNC(=N)N)C(=O)N[C@H](CCCNC(=N)N)C(=O)N[C@H](CCCNC(=N)N)C(=O)N[C@H](CCCCN)C(N)=O` [ARC-3126, BPTP-Ahx-(D-Arg)6-D-Lys-NH2] (X3-[dR][dR][dR][dR][dR][dR][dK]-NH2), for which the remaining activity at 1 µM with WNK1 came out at 107 ± 34%; in the series with PKB, 80 ± 4%; with BRSK1, 50 ± 10%; with Aurora A, 132 ± 8%; with DYRK2, 88 ± 6%; with STK33, 107 ± 6%. For the same molecule, the figures for the remaining activity at 1 µM with PDGFRA, in the series with MPSK1 and with PRK2 were 116 ± 3%, 79 ± 11% and 58 ± 15%, respectively.

Regarding `N=C(N)NCCC[C@@H](NC(=O)CNC(=O)[C@@H](CCCNC(=N)N)NC(=O)[C@@H](CCCNC(=N)N)NC(=O)CCCCCCCNCc1nc2c(sc3ccc(Br)cc32)c(=O)[nH]1)C(=O)N[C@H](CCCCN)C(N)=O` [Compound 2, BBTP-Aoc-(D-Arg)2-Gly-D-Arg-D-Lys-NH2], the remaining activity at 1 µM with WNK1 was determined as 93 ± 1%; with PKB it was 67 ± 7%; with BRSK1, 101%; with Aurora A it was 106 ± 3%; with DYRK2, 64 ± 5%; with STK33 it was 106 ± 3%. Besides, the remaining activity at 1 µM with PDGFRA is 101 ± 16%; with MPSK1, 113 ± 15%; with PRK2, 94 ± 12%.

In the case of `N=C(N)NCCC[C@@H](NC(=O)CNC(=O)[C@@H](CCCNC(=N)N)NC(=O)[C@@H](CCCNC(=N)N)NC(=O)Cn1cc(CNCc2nc3c(sc4ccc(Br)cc43)c(=O)[nH]2)nn1)C(=O)N[C@H](CCCCN)C(N)=O` [Compound 3, BBTP-Amt-(D-Arg)2-Gly-D-Arg-D-Lys-NH2], the remaining activity at 1 µM with WNK1 stood at 104 ± 6%; with PKB it was 72 ± 12%; with BRSK1 it was 90 ± 11%; with Aurora A, 97 ± 3%; with DYRK2, 83 ± 22%; with STK33, 91%. In addition, the values for the remaining activity at 1 µM with PDGFRA, with MPSK1 and with PRK2 were 108 ± 4%, 110 ± 2% and 67 ± 4%, respectively.

On to `N=C(N)NCCC[C@@H](NC(=O)CCCCCNC(=O)Cn1cnc2c(I)c(I)c(I)c(I)c21)C(=O)N[C@H](CCCNC(=N)N)C(=O)N[C@H](CCCNC(=N)N)C(=O)N[C@H](CCCNC(=N)N)C(=O)N[C@H](CCCNC(=N)N)C(=O)N[C@H](CCCNC(=N)N)C(=O)N[C@H](CCCCN)C(N)=O` [ARC-3125, TIBI-CH2-C(=O)-Ahx-(D-Arg)6-D-Lys-NH2], for which the remaining activity at 1 µM with WNK1 is 105 ± 33%; in the series with PKB, -1 ± 1%; with BRSK1, 84 ± 2%; with Aurora A, 84 ± 1%; with DYRK2, 54 ± 6%; with STK33, 84 ± 20%. Moreover, the figures for the remaining activity at 1 µM in the series with PDGFRA, with MPSK1 and in the series with PRK2 were 97%, 75 ± 3% and 16 ± 6%, respectively.

In the case of `N=C(N)NCCC[C@@H](NC(=O)CNC(=O)[C@@H](CCCNC(=N)N)NC(=O)[C@@H](CCCNC(=N)N)NC(=O)CCCCCCCNCc1nc2c(sc3cc(Br)cnc32)c(=O)[nH]1)C(=O)N[C@H](CCCCN)C(N)=O` [Compound 1, BPTP-Aoc-(D-Arg)2-Gly-D-Arg-D-Lys-NH2], the remaining activity at 1 µM with WNK1 amounted to 96 ± 4%; with PKB, 101 ± 6%; with BRSK1 it was 107 ± 5%; with Aurora A, 99 ± 6%; with DYRK2, 85 ± 17%; in the series with STK33, 110 ± 2%. In addition, the remaining activity at 1 µM stood at 115 ± 2% in the series with PDGFRA, 113 ± 21% with MPSK1 and 92 ± 2% with PRK2.
